Like-named read-outs stand apart in the source and are kept apart here.
What was measured:
CHIP pS20 = assay: Immunoblot for phospho-S20 CHIP in myocytes; type: cell-based, rat; conditions: cardiomyocytes; cGMP or SIL; DT3 1 μM
Experimental: (§1) Tissue and cultured cardiomyocytes were lysed in 1× lysis buffer (Cell Signaling Technology), protein concentration was measured by bicinchoninic acid assay (Pierce), and extracts were subjected to SDS-PAGE using Novex Tris-Glycine Gels (4-20% gradient gel, Life Technologies) or Mini-protean TGX Gels (4-20% gradient gel, Bio-Rad), transferred to nitrocellulose membranes, and probed with various primary antibodies (CHIP (#2080S), Hsc70 (#8444S), p-CHIP S20 (Custom antibody, AbMart Inc., Shanghai, China; Project: 25011-1), Myc (#2276S), GAPDH (#2118S), and α-tubulin (#3878S) (Cell Signaling) and ubiquitin antibody (#SAB4503053) from Sigma), and fluorescence-labeled secondary antibodies (Licor, #926-32211, 926-32210, 926-68023, or 926-68022). Gels were imaged (Odyssey, Licor) and band intensity quantified (Odyssey Software 3.1).
Human CHIP peptide fragments containing amino acid residues 13-30 were incubated with cGMP/PKG and assayed by MS. […] Phosphorylation was also observed at neighboring S24 and S26, but only when a S20A CHIP mutant was used (FIG. 2D). This indicates the primary target for PKG on CHIP is at S20. A monoclonal phospho-antibody generated against the S20 site in CHIP was tested in vitro with recombinant PKG1α and CHIP, verifying a consistent phospho-S20-CHIP signal. Use of a CHIP-S20A mutant CHIP confirmed specificity (FIG. 2E).

proteasome = assay: Proteasome activity assay in NRCMs; type: cell-based, rat; conditions: control cells and cells subjected to SI
Experimental: Proteasome peptidase activity assays were performed as described (22) with slight modification.

[1] = tested on: neonatal rat cardiomyocytes (NRCMs); assay: LDH/MTT cytotoxicity assay after simulated ischemia (SI); conditions: for SI-induced cytotoxicity (LDH/MTT ratio): sildenafil 1 μM
Experimental: (§3) After overnight culture, subsets of NRCMs were infected with adenovirus (AdV) containing a FLAG-tagged PDE5, FLAG control, Myc-tagged CHIP WT or K31A (provided by Dr. Cam Patterson), S20E or S20A (Welgen Inc., Worcester, MA). Forty-eight hours after infection, cells were exposed to either simulated ischemia (SI) or normal conditions. SI involved incubating cells in DMEM containing deoxyglucose (20 mM), NaCl (125 mM), KCl (8 mM), KH2PO4 (1.2 mM), MgSO4 (1.25 mM), CaCl2) (1.2 mM), NaHCO3(6.25 mM), sodium lactate (5 mM), and HEPES (20 mM) with a pH of 6.6. Cells were then placed in an incubator chamber (Billups-Rothenberg) with 95% nitrogen, 4% carbon dioxide, and 1% oxygen. Normoxic controls were incubated in DMEM supplemented with 10% FBS in air composed of 95% carbon dioxide and 5% oxygen. RNA or protein was harvested after 48 hours of SI. Cells were also treated with sildenafil (1 μM) or vehicle, or small interference RNA (siRNA, 100 pM) specific for rat Stub1 (Qiagen, Cat. #: SI01532251) or scrambled control provided 24 hours after plating and transfected with Xfect (Takara) per manufacturer protocol.
(§4) Lactate dehydrogenase (LDH) leakage and (3-[4,5-dimethylthiazol-2-yl]-2,5-diphenyltetrazolium bromide) (MTT) were assessed in cultured cardiomyocytes and media after SI from the same culture dish. LDH was assayed by commercial assay (Roche) following manufacturer's protocol, read in 96 well microplates on a Spectramax M5 (Molecular Devices) at 490 nm absorbance. For MTT, cells were washed in phosphate-buffered saline, MTT (Sigma-Aldrich) working solution added to the culture dish, incubated at 37° C., solubilized with acidic isopropanol, transferred to a 96 well plate, and read at 570 nm with background subtraction at 650 nm on a Spectramax M5.

[2] = biological target: T1, recombinant human CHIP peptide fragment containing residues 13-30 (Uniprot Q9UNE7), WT
T1 chain: LGAGGGSPEKSPSAQELK

[3] = biological target: T2, recombinant human CHIP peptide fragment containing residues 13-30, S20A
T2 chain: LGAGGGAPEKSPSAQELK

ubiquitinated proteins = assay: Western blot of ubiquitinated proteins in NRCMs after SI; type: cell-based, rat; conditions: adenovirus CHIP variant, SI 48 hours, compared to CHIP-WT
Experimental: as §1

Hsc70 = biological target: T3, Hsc70 (Rattus norvegicus, UniProt P63018); assay: CHIP-Hsc70 co-immunoprecipitation from myocyte lysate; type: cell-based; conditions: myocytes with or without SI, Hsc70 as bait
T3 construct: lysate from myocytes with or without exposure to SI were immunoprecipitated using Hsc70 as bait; endogenous in cells; host or cells: neonatal rat cardiomyocytes infected with adenovirus for Myc-tagged CHIP WT, S20E or S20A
Experimental: as §1
To test whether thermodynamic stabilization of CHIP-HSC70 due to S20 phosphorylation enhances protein binding, lysate from myocytes with or without exposure to SI were immunoprecipitated using Hsc70 as bait. […] Reduced CHIP-Hsc70 interaction was also observed in vivo following MI in hearts with PKG activation suppressed by mPDE5A/oe, whereas this was enhanced in WT hearts (FIG. 5C, FIG. 14B).

[4] = tested on: transthyretin (TTR) V122I; assay: TTR aggregates in NRCMs by confocal microscopy; type: cell-based, rat; conditions: TTR V122I 5 μM, adenovirus, 14 days
Experimental: Neonatal rat cardiomyocytes (NRCMs) were cultured in mutant transthyretin (TTR) valine 122 to isoleucine (V122I)-containing medium (5 μM) and transfected with a Chip SE (serine 20 phospho-mimetic) or SA ([…] phospho-null) adenovirus and cultured for 14 days. Cardiomyocytes were stained with phalloidin (red), TTR (green), and nuclei with DAPI (blue).

TTR-V122I = assay: TTR abundance in hiPSC-CMs by western blot; type: cell-based, human; conditions: siLamp2A 100 μM, TTR-V122I 5 μM, 14 days
Experimental: (§2) Human induced pluripotent stem cell derived cardiomyocytes (hiPSC-CMs) were infected with Ad-Chip WT, SE, or SA (10 MOI), in the presence or absence of protein kinase G (PKG) stimulation via cGMP (100 mM) and exposed to media containing TTR-V122I (5 μM) or control for 14 days. Cells were lysed and TTR abundance was determined by western blotting for TTR with a total protein stain used to show equal loading.
as §2, with “Lamp2A knockdown” for “protein kinase G (PKG) stimulation”, “siRNA (siLamp2A, 100 μM)” for “cGMP (100 mM)”, “loading. Knocking down Lamp2A removes the method of protein degradation known as chaperone mediated autophagy (CMA).” for “loading.”

[5] = tested on: neonatal rat cardiomyocytes (NRCMs)
Experimental: as §3, §4

CCCc1nn(C)c2c(=O)[nH]c(-c3cc(S(=O)(=O)N4CCN(C)CC4)ccc3OCC)nc12 [SIL, sildenafil]
CHIP pS20 level (CHIP pS20): CHIP pS20 increased
proteasome activity (proteasome): augmented
SI-induced cytotoxicity (LDH/MTT ratio) ([1]; NRCMs expressing CHIP (scrambled siRNA)): reduced SI-induced cytotoxicity
cytotoxicity with SIL across CHIP forms ([1]; NRCMs expressing WT, S20E or S20A CHIP, control and SI conditions): lowered cytotoxicity regardless of which CHIP protein was expressed
SI-induced cytotoxicity (LDH/MTT ratio) ([1]; NRCMs lacking CHIP (CHIP-siRNA)): this protective effect was lost

B1: human, active PKG1α purified from Sf9 cells (SRP0371, Sigma) (protein)
chain: SELEEDFAKILMLKEERIKELEKRLSEKEEEIQELKRKLHKCQSVLPVPSTHIGPRTTRAQGISAEPQTYRSFHDLRQAFRKFTKSERSKDLIKEAILDNDFMKNLELSQIQEIVDCMYPVEYGKDSCIIKEGDVGSLVYVMEDGKVEVTKEGVKLCTMGPGKVFGELAILYNCTRTATVKTLVNVKLWAIDRQCFQTIMMRTGLIKHTEYMEFLKSVPTFQSLPEEILSKLADVLEETHYENGEYIIRQGARGDTFFIISKGTVNVTREDSPSEDPVFLRTLGKGDWFGEKALQGEDVRTANVIAAEAVTCLVIDRDSFKHLIGGLDDVSNKAYEDAEAKAKYEAEAAFFANLKLSDFNIIDTLGVGGFGRVELVQLKSEESKTFAMKILKKRHIVDTRQQEHIRSEKQIMQGAHSDFIVRLYRTFKDSKYLYMLMEACLGGELWTILRDRGSFEDSTTRFYTACVVEAFAYLHSKGIIYRDLKPENLILDHRGYAKLVDFGFAKKIGFGKKTWTFCGTPEYVAPEIILNKGHDISADYWSLGILMYELLTGSPPFSGPDPMKTYNIILRGIDMIEFPKKIAKNAANLIKKLCRDNPSERLGNLKNGVKDIQKHKWFEGFNWEGLRKGTLTPPIIPSVASPTDTSNFDSFPEDNDEPPPDDNSGWDIDF
serine phosphorylation detected by mass spectrometry after incubation with cGMP/PKG [2]: Phosphorylation was observed at S20 with wildtype (WT) CHIP
serine phosphorylation detected by mass spectrometry after incubation with cGMP/PKG [3]: Phosphorylation was also observed at neighboring S24 and S26, but only when a S20A CHIP mutant was used

B2: CHIP-S20A: phospho-silenced (phospho-null) CHIP mutant, serine 20 to alanine (protein)
chain: MKGKEEKEGGARLGAGGGAPEKSPSAQELKEQGNRLFVGRKYPEAAACYGRVITRNPLVAVYYTNRALCYLKMQQHEQALADCRRALELDGQSVKAHFFLGQCQLEMESYDEAIANLQRAYSLAKEQRLNFGDDIPSALRIAKKKRWNSIEERRIHQESELHSYLSRLIAAERERELEECQRNHEGDEDDSHVRAQQACIEAKHDKYMADMDELFSQVDEKRKKRDIPDYLCGKISFELMREPCITPSGITYDRKDIEEHLQRVGHFDPVTRSPLTQEQLIPNLAMKEVIDAFISENGWVEDY
modifications: left off: small tags and cut ends
notes: phospho-silenced (phospho-null) CHIP mutant, serine 20 to alanine
ubiquitinated proteins after SI (ubiquitinated proteins): significantly amplified
co-precipitation of CHIP and Hsc70 (Hsc70): co-precipitation was absent
TTR positive aggregates [4]: increased TTR positive aggregates
TTR accumulation with Lamp2A knockdown (TTR-V122I): exacerbated the accumulation of TTR
SI-induced cytotoxicity (LDH/MTT ratio) [5]: displayed greater cytotoxicity and blunted the protective effects from SIL

Reference: US20230374087A1, “METHOD TO IMPROVE PROTEIN QUALITY CONTROL” (The Johns Hopkins University, priority 2020, published 2023)
